Source: PMC10320583 (Journal of Structural Biology: X, 2023)

T1: E. coli LptAm-GSGGSGSG-AviTag, biotinylated (E. coli, UniProt P0ADV1 28-158, biotin on the AviTag (BirA biotin-protein ligase))
T1 sequence (looked up): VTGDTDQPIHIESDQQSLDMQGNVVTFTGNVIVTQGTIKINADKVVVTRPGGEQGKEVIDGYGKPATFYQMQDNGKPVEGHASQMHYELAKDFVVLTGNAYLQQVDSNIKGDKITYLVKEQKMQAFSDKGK

B1: E. coli LptAm (truncated monomeric LptA) (domain or fragment, UniProt P0ADV1 28-158, looked up)
chain: T1 sequence (looked up)
B2: P. maculiventris thanatin M21I (peptide, UniProt P55788 1-21, looked up)
peptide: GSKKPVPIIYCNRRTGKCQRI
B3: P. maculiventris thanatin Y10A/M21I (peptide, UniProt P55788 1-21, looked up)
peptide: GSKKPVPIIACNRRTGKCQRI
B4: P. maculiventris thanatin Y10A (peptide, UniProt P55788 1-21, looked up)
peptide: GSKKPVPIIACNRRTGKCQRM
B5: P. maculiventris thanatin Q19R (peptide, UniProt P55788 1-21, looked up)
peptide: GSKKPVPIIYCNRRTGKCRRM

Experiments:
[1] = target: E. coli LptAm-GSGGSGSG-AviTag, biotinylated (E. coli) (UniProt P0ADV1)
crystal structure = target: the molecule itself; assay: crystal structure
[2] = target: T1, E. coli LptAm-GSGGSGSG-AviTag, …; assay: BLI

Molecule	fold improvement of binding over P. maculiventris thanatin [2] [fold]	other results
Chinavia ubica thanatin (peptide)		MIC against E. coli ATCC 25922 [1]: 1.4 µg/mL
Murgantia histrionica thanatin (peptide)		MIC against E. coli ATCC 25922 [1]: 1.1 µg/mL
B1		stoichiometry N (crystal structure): 2
B2	~3	
B3	~3	
B4	~3	
B5	~3	
